The Kd is the free concentration of one partner at which half of the binding sites on the other are occupied at equilibrium, for simple one-to-one binding. In general, koff refers to a measure of how fast the partners let go of each other. Higher therefore signals fast dissociation. Usually EC50 stands for the midpoint of the concentration-response curve.

Assay [1] has as its target T1, human guanylyl cyclase C (GCC), as used in the Octet binding assay (human, UniProt P25092 24-430, limits assumed).
T1 construct: also called STAR; GUC2C
The assay can be described thus: Octet BLI, 1:1 model. Here is the method:
Single domain heavy chain antibodies (VH) were generated that specifically target human GCC (e.g., anti-GCC binders provided in Tables 1-3). […] Binding kinetics were determined using an Octet binding assay. These were measured in real-time bio-layer interferometer based biosensor Octet (ForteBio). All the binding studies were performed in HBS-ET Octet kinetics buffer. Biosensors were always washed in Octet kinetics buffer in between different steps. A seven point, two-fold dilution series of each VH was made. The contact time for each of the association steps was 300 seconds and the dissociation step was varied between 400-600 seconds. Kinetic association (ka) and dissociation (kd) rate constants were determined by processing and fitting the data to a 1:1 binding model using ForteBio Analysis software.

Assay [2] concerns the target T2, GCC on CT26 cells.
T2 construct: whole, on cells; That the target is GCC is inferred from this context
In words: flow cytometry on CT26 cells, dose response. Here is the method: Binding of single domain antibodies to CT26 cells was measured using flow cytometry. CT26 cells were incubated with serially diluted VH and fluorescence was measured by flow cytometry. Anti-GCC VH antibodies were confirmed for binding to CT26 cells by a FACS dose response assay to obtain an on cell binding EC50 (nM) as shown in Table 4.

T1 sequence (P25092 24-430 limits assumed): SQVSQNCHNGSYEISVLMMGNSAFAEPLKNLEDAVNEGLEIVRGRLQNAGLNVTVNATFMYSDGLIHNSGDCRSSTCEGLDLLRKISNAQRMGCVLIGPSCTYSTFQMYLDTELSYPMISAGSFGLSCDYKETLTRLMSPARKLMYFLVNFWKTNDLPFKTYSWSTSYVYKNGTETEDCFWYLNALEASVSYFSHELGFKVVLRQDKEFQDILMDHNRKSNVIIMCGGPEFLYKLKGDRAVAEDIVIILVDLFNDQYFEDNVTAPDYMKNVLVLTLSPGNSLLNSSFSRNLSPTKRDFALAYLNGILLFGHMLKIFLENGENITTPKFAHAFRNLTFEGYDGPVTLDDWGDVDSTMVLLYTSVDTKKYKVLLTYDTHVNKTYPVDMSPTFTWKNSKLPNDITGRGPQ
T2 sequence (Q3UWA6 whole entry): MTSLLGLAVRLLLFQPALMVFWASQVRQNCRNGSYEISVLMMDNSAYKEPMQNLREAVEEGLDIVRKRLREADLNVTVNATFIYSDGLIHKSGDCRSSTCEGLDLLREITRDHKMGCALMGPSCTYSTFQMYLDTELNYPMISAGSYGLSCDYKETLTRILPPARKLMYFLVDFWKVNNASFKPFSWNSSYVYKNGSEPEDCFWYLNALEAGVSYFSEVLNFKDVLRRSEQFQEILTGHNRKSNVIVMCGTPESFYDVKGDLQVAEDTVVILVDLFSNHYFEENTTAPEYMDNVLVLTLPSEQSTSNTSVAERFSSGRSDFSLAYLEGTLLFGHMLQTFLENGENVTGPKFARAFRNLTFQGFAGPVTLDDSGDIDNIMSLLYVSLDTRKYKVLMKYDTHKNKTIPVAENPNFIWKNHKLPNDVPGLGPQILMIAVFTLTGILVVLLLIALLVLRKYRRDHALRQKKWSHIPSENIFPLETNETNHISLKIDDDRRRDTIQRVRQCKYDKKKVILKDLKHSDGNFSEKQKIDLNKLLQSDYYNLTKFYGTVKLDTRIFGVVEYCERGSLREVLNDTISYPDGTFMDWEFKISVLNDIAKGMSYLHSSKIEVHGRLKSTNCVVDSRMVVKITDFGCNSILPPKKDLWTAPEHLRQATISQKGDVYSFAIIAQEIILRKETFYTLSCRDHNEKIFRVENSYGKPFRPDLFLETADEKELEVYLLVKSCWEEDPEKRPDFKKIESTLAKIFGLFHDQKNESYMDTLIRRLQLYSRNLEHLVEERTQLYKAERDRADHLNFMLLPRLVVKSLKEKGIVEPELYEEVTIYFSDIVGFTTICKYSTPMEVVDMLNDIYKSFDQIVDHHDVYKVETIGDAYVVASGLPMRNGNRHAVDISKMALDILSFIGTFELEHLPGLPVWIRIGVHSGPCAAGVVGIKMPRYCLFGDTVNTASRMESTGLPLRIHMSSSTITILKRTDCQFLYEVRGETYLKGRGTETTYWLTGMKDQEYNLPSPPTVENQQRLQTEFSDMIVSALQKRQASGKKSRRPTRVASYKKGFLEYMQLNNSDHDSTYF

B1: V1 anti-GCC single domain VH antibody (VHH)
VHH: QVQLQESGPGLVKPSETLSLTCTVSGASISHYYWSWFRQPAGKGLEWIGRIYPSGSTSYNPSLKSRVAMSVDTPKNQFSLNLSSVTAADTAVYYCARDRSTGWSEWNSDLWGRGTLVTVSS
notes: Human heavy chain variable single domain antibody (VH only, no light chain), tested as recombinant purified VH; also called V1 VH
As to B1, in assay [1], binding was characterised by a dissociation constant (Kd) of 0.329 nM and the koff was 0.000208 s⁻¹. In assay [2], this molecule yielded an EC50 of 0.72 nM.

B2: V51 anti-GCC single domain VH antibody (VHH)
VHH: EVQLVESGGGLVQPGGSLRLSCAASGFTFSRYWMTWVRQAPGKGLEWVAKIRHDGGEKYYADSVKGRFTISRDNAKNSLYLQMNSLRAEDTAVYYCTRDYNKDYWGQGTLVTVSS
notes: Human heavy chain variable single domain antibody (VH only), tested as recombinant purified VH; No tags are stated
In assay [1], B2 registered a Kd of 9.54 nM and a koff of 0.00185 s⁻¹.

B3: V48 anti-GCC single domain VH antibody (VHH)
VHH: EVQLVESGGGLVQPGGSLRLTCAASGFTFSRYWMTWVRQAPGKGLEWVAKIRHDGGEKYYPDSVKGRFTVSRDNAKNSLYLQMDNLRAEDTAMYYCTRDYNKDLWGQGTLVTVSS
notes: as for B2
For the molecule B3, in assay [1], the Kd turned out to be 1.38 nM and the koff worked out at 0.000341 s⁻¹. For the same molecule, the EC50 in assay [2] worked out at 1.01 nM.

B4: V5 anti-GCC single domain VH antibody (VHH)
VHH: QVQLVESGGGLVQPGGSLRLSCTASGFTFSRYWMSWVRQAPGKGLEWVAKIRHDGGEKYYVDSVKGRFTISRDNAKNSLYLQMNSLRAEDTAVYYCATDYTRDVWGQGTAVTVSS
notes: as for B2
In assay [1], B4 yielded a Kd of 7.71 nM and a koff of 0.000719 s⁻¹. In assay [2], this molecule yielded an EC50 of 1.52 nM.

B5: V36 anti-GCC single domain VH antibody (VHH)
VHH: EVQLVESGGGLAQPGGSLRLSCAASGFTFSRYWMTWVRQAPGGRLEWVAKIKYDGSEKYYADSVKGRFTISRDNAKNSLYLQMDSLRAEDTAVYYCTRDYNKDYWGQGTLVTVSS
notes: as for B2
In assay [1], B5 returned a Kd of 105 nM and a koff of 0.0035 s⁻¹.

The values are drawn from US20240033359A1 (Takeda / Millennium, published 2024).
